The record followed here is PMC12757645, “Bacillus subtilis encodes three N-acetylcysteine deacetylase enzymes that can catalyze the final step in S-(2-succino)cysteine breakdown” (The Journal of Biological Chemistry, 2025).

Substrate in the series: CC(=O)N[C@@H](CS)C(=O)O
Nature of the series: purified protein. Format: biochemical, Bacillus subtilis. As to conditions: 50 mM potassium phosphate pH 7.8, 5 mM CoCl2, 37 °C.

B1: YhaA (Bacillus subtilis subsp. subtilis str. 168) (protein)
chain: MSISTLQKEINKQLDGCFEEMVEIRRHFHMYPELSFQEEKTAAFIASYYESLGVPIRTNVGGRGVLANIEGSEPGPTVALRADFDALPIQDEKDVPYASKVPGVMHACGHDGHTAALLAVAKVLHQNRHELKGTFVMIHQHAEEYYPGGAKPMIDDGCLENTDVIFGTHLWATEPLGTILCRPGAVMAAADRFTIKVFGKGGHGAHPHDTKDAVLIGSQIVSSLQHIVSRKVNPIQSAVISTGSFIADNPFNVIADQAVLIGTARSFDENVRDILEKEIEAVVKGICSMHGASYEYTYEQGYPAVVNHPAETNHLVSTAKNTEGVQQVIDGEPQMGGEDFAYYLQNVKGTFFFTGAAPEQPERVYSHHHPKFDINEKAMLTAAKVLAGAAITYHQL
B1: the Km (as a rule, the concentration of substrate that gives half-maximal velocity) turned out to be 895.8 ± 338.1 µM; the Vmax (commonly the top rate of the reaction or transport when substrate is in excess) came to 24.7 µmol/min/mg; the kcat (usually the number of substrate molecules converted per active site and unit of time at saturation) turned out to be 18.8 ± 1.3 s⁻¹; the kcat/Km (usually the second-order rate constant that governs catalysis at low substrate concentration) is 21000 ± 3700 M⁻¹ s⁻¹.

B2: ScmP (Bacillus subtilis subsp. subtilis str. 168) (protein)
chain: MADKAFHTRLINMRRDLHEHPELSFQEVETTKKIRRWLEEEQIEILDVPQLKTGVIAEIKGREDGPVIAIRADIDALPIQEQTNLPFASKVDGTMHACGHDFHTASIIGTAMLLNQRRAELKGTVRFIFQPAEEIAAGARKVLEAGVLNGVSAIFGMHNKPDLPVGTIGVKEGPLMASVDRFEIVIKGKGGHAGIPNNSIDPIAAAGQIISGLQSVVSRNISSLQNAVVSITRVQAGTSWNVIPDQAEMEGTVRTFQKEARQAVPEHMRRVAEGIAAGYGAQAEFKWFPYLPSVQNDGTFLNAASEAAARLGYQTVHAEQSPGGEDFALYQEKIPGFFVWMGTNGTEEWHHPAFTLDEEALTVASQYFAELAVIVLETIK
In the case of B2, the Michaelis constant (Km) turned out to be 494.5 ± 67.4 µM, the maximum rate (Vmax) worked out at 112 µmol/min/mg and the kcat came out at 82.5 ± 9.2 s⁻¹.

B3: YtnL (Bacillus subtilis subsp. subtilis str. 168) (protein)
chain: MSLDYWRNIEGSYPYQTTGNDILTLKEESNPVNLSTLEKQLIGIRRHLHQYPELSKEEFETTAFIKKCLKEKGIQIRPTALKTGVFADIAGESEGPAIALRADIDALPIEEKTGLPYASKHKGIMHACGHDFHTAALLGAAFLLKENQDSLKGKIRLLFQPAEEAGAGATKVIEDGQLDGIDAVIGLHNKPDIAVGTVGLKTGPLMAAVDRFKVEIEGKGAHAALPHNGFDPIIGASQLIVALQTIVSRNVNPLQSAILTVGKINGGSTWNVIPDTVVIEGTVRTFDSEVRNQVKQRFFAVTEQISAAFSLKANVKWHSGPPPLCNDEAITGLVRDAAHKAKLQVIDPAPSTAGEDFAYYLEHIPGSFAFFGTDGDHDWHHPAFTIDETAIIKASYFLYESAKRLLDSNEESKISD
B3: the Km is 855.0 ± 339.2 µM, the Vmax was 43 µmol/min/mg, the kcat came out at 34.2 ± 3.8 s⁻¹ and the kcat/Km turned out to be 40000 ± 11000 M⁻¹ s⁻¹.
